Series [1] has as its target human ErbB2, wild type, transiently overexpressed in CHO-K1 cells from pCMV6-XL5-ERBB2 (human, UniProt P04626 23-1255). The series is described as follows: ELISA.
Series [2] concerns the molecule itself.
Series [3] concerns the target human ErbB2 stably overexpressed in CHO-K1 cells (CHO-K1/ErbB2 cells, pcDNA3-ERBB2) (human, UniProt P04626 23-1255). The series is described as follows: cross-linking.
Series [4] has as its target ErbB2/delD4 (human ErbB2 lacking ECD subdomain D4) (human) (UniProt P04626). The series is described as follows: ELISA.
The target in series [5] is ErbB2/delD2 (human ErbB2 lacking ECD subdomain D2) (human) (UniProt P04626). The series is described as follows: ELISA.

Values joined by “and” are separate entries in the source; they are usually repeats but may differ in a detail not shown here. Equal values may be shown once.

B1: Recombinant human prolidase (PEPD), wild type (enzyme)
chain: MAAATGPSFWLGNETLKVPLALFALNRQRLCERLRKNPAVQAGSIVVLQGGEETQRYCTDTGVLFRQESFFHWAFGVTEPGCYGVIDVDTGKSTLFVPRLPASHATWMGKIHSKEHFKEKYAVDDVQYVDEIASVLTSQKPSVLLTLRGVNTDSGSVCREASFDGISKFEVNNTILHPEIVECRVFKTDMELEVLRYTNKISSEAHREVMKAVKVGMKEYELESLFEHYCYSRGGMRHSSYTCICGSGENSAVLHYGHAGAPNDRTIQNGDMCLFDMGGEYYCFASDITCSFPANGKFTADQKAVYEAVLRSSRAVMGAMKPGVWWPDMHRLADRIHLEELAHMGILSGSVDAMVQAHLGAVFMPHGLGHFLGIDVHDVGGYPEGVERIDEPGLRSLRTARHLQPGMVLTVEPGIYFIDHLLDEALADPARASFLNREVLQRFRGFGGVRIEEDVVVTDSGIELLTCVPRTVEEIEACMAGCDKAFTPFSGPK
B1: the Kd in series [1] amounted to 7.3 nM. For the same molecule, the “stoichiometry N” value is 2 in series [2]; 2 PEPD per 2 ErbB2 (heterotetramer) and 2 PEPD per 1 ErbB2 (heterotrimer) in series [3]. Also, the figures for the fold reduction of binding affinity against wild-type ErbB2 in series [4] and in series [5] were 51 fold and 3.5 fold, respectively.

B2: G278D-PEPD (human PEPD, G→D at amino acid no. 278) (enzyme)
chain: MAAATGPSFWLGNETLKVPLALFALNRQRLCERLRKNPAVQAGSIVVLQGGEETQRYCTDTGVLFRQESFFHWAFGVTEPGCYGVIDVDTGKSTLFVPRLPASHATWMGKIHSKEHFKEKYAVDDVQYVDEIASVLTSQKPSVLLTLRGVNTDSGSVCREASFDGISKFEVNNTILHPEIVECRVFKTDMELEVLRYTNKISSEAHREVMKAVKVGMKEYELESLFEHYCYSRGGMRHSSYTCICGSGENSAVLHYGHAGAPNDRTIQNGDMCLFDMDGEYYCFASDITCSFPANGKFTADQKAVYEAVLRSSRAVMGAMKPGVWWPDMHRLADRIHLEELAHMGILSGSVDAMVQAHLGAVFMPHGLGHFLGIDVHDVGGYPEGVERIDEPGLRSLRTARHLQPGMVLTVEPGIYFIDHLLDEALADPARASFLNREVLQRFRGFGGVRIEEDVVVTDSGIELLTCVPRTVEEIEACMAGCDKAFTPFSGPK
Regarding B2, in series [2], the “stoichiometry N” value is 2.
